This assay addresses cystatin C^EX (human) (UniProt P01034). As to the kind of experiment: ELISA; two-fold serial dilutions of cystatin C^EX coated on the plate overnight at 4 °C, 10 μg/mL ECD-Fc added for 2 h at room temperature, anti-human-IgG-Fc-HRP. (In general: ELISA stands for enzyme-linked immunosorbent assay.)
UniProt P01034, sequence (P01034 27-146): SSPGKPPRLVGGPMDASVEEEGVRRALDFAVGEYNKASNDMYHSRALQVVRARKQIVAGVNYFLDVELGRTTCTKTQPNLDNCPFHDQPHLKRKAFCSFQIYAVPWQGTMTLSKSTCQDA

For “LILRB2 ECD-Fc (commercial) (from UniProt Q8N423 22-460) (Fc fusion)”, the EC50 (in general, the concentration at which the effect is half-maximal) amounted to 22.8 nM.
The same measure for “LILRB5 ECD-Fc (commercial) (from UniProt O75023 24-458) (Fc fusion)”: 1180 nM.
